Article PMC7677311, “Disrupting Plasmodium UIS3–host LC3 interaction with a small molecule causes parasite elimination from host cells” (Communications Biology, 2020)

Target: LC3 (Microtubule-associated protein 1A/1B-light chain 3) (UniProt Q9GZQ8 1-120)
Assay: ITC; 100 µM LC3 titrated into 10 µM PfUIS3; MicroCal ITC 200, 25 °C; 50 mM sodium phosphate, 150 mM NaCl, pH 6.5; one-site binding model
Details: both partners purified

B1: Plasmodium falciparum UIS3 (Upregulated in infective sporozoites 3) (natural protein)
chain: INKINLNKPIIENKNNVDVSIKRYNNFVDIARLSIQKHFEHLSNDQKDSHVNNMEYMQKFVQGLQENRNISLSKYQENKAVMDLKYHLQKVYANYLSQEEN
modifications: Construct limits are not given; the soluble domain is taken from PDB 2VWA, which the paper cites for PfUIS3. The His tag was removed with thrombin; the residual myc tag is left out.
  Kd: 2150 ± 121 nM
